Experimental data published in paper PMC4734654 (Nature, 2015).

Experiments:
[1] = biological target: OsSWEET2b, crystallisation construct (C-terminal 15 residues removed, reductively methylated) (Oryza sativa); assay: crystal structure
[2] = biological target: the molecule itself; assay: cross-linking

## OsSWEET2b, crystallisation construct (C-terminal 15 residues removed, reductively methylated) (natural protein)
[1]
  stoichiometry N: 3

B1: OsSWEET2b, purified in DDM for glutaraldehyde cross-linking (natural protein)
chain: MDSLYDISCFAAGLAGNIFALALFLSPVTTFKRILKAKSTERFDGLPYLFSLLNCLICLWYGLPWVADGRLLVATVNGIGAVFQLAYICLFIFYADSRKTRMKIIGLLVLVVCGFALVSHASVFFFDQPLRQQFVGAVSMASLISMFASPLAVMGVVIRSESVEFMPFYLSLSTFLMSASFALYGLLLRDFFIYFPNGLGLILGAMQLALYAYYSSNSLEVLFQ
[2]
  stoichiometry N: 3
